The RNAGym collection of RNA variant scans (doi:10.7554/elife.80360)

B1: Hairpin Ribozyme (parent)
chain: GUCCUCUUUCACGUGCGCGUGAAAGAGAGAAGUGAACCAGAGAAACACACGUUGUGGUAUAUUACCUGGUA

Variants of: B1
Assay: self-cleavage, relative activity (ratio to wild type); higher = more cleavage; co-transcriptional

Row | Variant | self-cleavage
1 | G1U U5A | 0.163
2 | U2A C3U | 0.288
3 | G1U G69A | 0.0764
4 | U2C U20C | 0.273
5 | U2A G34U | 0.665
6 | C3A A49C | 0.164
7 | C3G A30G | 0.1
8 | C3A U55A | 0.172
9 | U2C C12G | 0.0835
10 | U2C C12A | 0.205
11 | U2C C12U | 0.226
12 | C3A U60C | 1.07
13 | U2G G17A | 0.529
14 | U2G G17U | 0.327
15 | U2A G17U | 0.22
16 | U2G C65G | 0.0852
17 | U2C G42U | 0.203
18 | U2G G25C | 0.137
19 | U2A C38A | 0.115
20 | U2A C38G | 0.121
21 | U2C C6U | 0.245
22 | U2C C6A | 0.0756
23 | U2C C6G | 0.0983
24 | U2G G51C | 0.359

Row | Variant | self-cleavage
25 | G1U U52C | 0.261
26 | G1U U55G | 0.104
27 | G1U U55A | 0.224
28 | U2C U7C | 0.246
29 | U2C U7G | 0.105
30 | G1U G40C | 0.055
31 | U2A G40A | 0.0928
32 | U2A G40C | 0.12
33 | C3A C37A | 0.217
34 | U2C A44U | 0.201
35 | C3A A36C | 0.497
36 | U2C U67G | 0.0822
37 | G1U G21A | 0.129
38 | C3A A28G | 0.453
39 | C3A A28C | 0.648
40 | U2A U9A | 0.201
41 | U2G A59G | 0.225
42 | U2C U33A | 0.0916
43 | G1U G15A | 0.171
44 | U2A G57C | 0.0768
45 | U2C A64C | 0.0771
46 | U2C A64U | 0.107
47 | U2C G69C | 0.0747
48 | U2C G69A | 0.0698

Row | Variant | self-cleavage
49 | C3A A47G | 0.191
50 | U2C G27A | 0.129
51 | U2C G27U | 0.0539
52 | U2A A24U | 0.29
53 | U2A A24G | 0.286
54 | C3A U62C | 0.2
55 | U2C A39C | 0.0668
56 | U2C A39G | 0.0933
57 | U2A A26G | 0.321
58 | U2A C12A | 0.171
59 | U2A C12G | 0.175
60 | U2A C12U | 0.166
61 | U2C U14A | 0.0424
62 | U2C C50A | 0.0705
63 | U2C C50G | 0.144
64 | C3A C46U | 0.111
65 | U2A A36U | 0.144
66 | U2A A36G | 0.194
67 | G1U U7A | 0.131
68 | G1U U7G | 0.088
69 | C3A A22C | 0.593
70 | U2A C50U | 0.113
71 | U2G A30U | 0.117
72 | U2G A30C | 0.108

Row | Variant | self-cleavage
73 | C3A A71C | 1.11
74 | C3A A71U | 0.517
75 | G1U U67A | 0.105
76 | C3A A61U | 0.199
77 | G1U U9G | 0.224
78 | G1U U9C | 0.0677
79 | U2C A41G | 0.158
80 | U2G A28C | 0.384
81 | U2C G19C | 0.128
82 | U2C G19A | 0.149
83 | G1U G34A | 0.143
84 | G1U G34U | 0.19
85 | U2G C66U | 0.163
86 | U2G G56C | 0.0624
87 | U2G G56U | 0.0924
88 | U2G C18A | 0.379
89 | U2G C18G | 0.373
90 | C3A U7C | 0.621
91 | U2A A23C | 0.262
92 | C3A U53G | 0.613
93 | U2C A61U | 0.0427
94 | U2G U60A | 0.402
95 | U2G U20C | 0.385
96 | U2G U20G | 0.186

Row | Variant | self-cleavage
97 | U2G U20A | 0.225
98 | C3A A45C | 0.157
99 | C3A A45G | 0.197
100 | C3A A45U | 0.164
101 | U2C C66U | 0.0916
102 | U2C U62A | 0.0408
103 | U2G A41U | 0.71
104 | U2A U53G | 0.134
105 | U2C A59C | 0.0741
106 | U2C A59G | 0.173
107 | U2G U9A | 0.242
108 | U2G U9G | 0.206
109 | U2A U7A | 0.331
110 | U2C G51A | 0.219
111 | U2C G51C | 0.506
112 | C3A C48G | 0.158
113 | C3A C48U | 0.112
114 | G1U U62A | 0.147
115 | G1U U53A | 0.0738
116 | U2C U58G | 0.148
117 | U2C C38A | 0.0742
118 | U2C C38U | 0.147
119 | U2C A11C | 0.229
120 | U2C G34A | 0.217

Row | Variant | self-cleavage
121 | U2G C6U | 0.303
122 | U2G C6G | 0.155
123 | U2G C6A | 0.196
124 | U2G C38A | 0.143
125 | U2G C38G | 0.172
126 | C3A A39U | 0.252
127 | C3A A39G | 0.192
128 | C3A A39C | 0.328
129 | U2A A64U | 0.0942
130 | C3A G56U | 0.162
131 | C3A G56A | 0.127
132 | U2A U55G | 0.109
133 | U2G A22U | 0.259
134 | U2A U67A | 0.0652
135 | U2C G56A | 0.177
136 | C3A A43U | 0.179
137 | C3A A43C | 0.0772
138 | U2A U5G | 0.166
139 | U2G G54C | 0.155
140 | U2A G51C | 0.125
141 | U2A G51A | 0.233
142 | U2C A31C | 0.226
143 | U2C G68A | 0.0299
144 | U2C G68C | 0.187

Row | Variant | self-cleavage
145 | G1U G19A | 0.208
146 | U2A U14C | 0.265
147 | G1U G17U | 0.162
148 | U2G C16G | 0.267
149 | U2G C16U | 0.478
150 | U2G G21C | 0.364
151 | U2G G21U | 0.236
152 | C3A A30C | 0.14
153 | C3A A30G | 0.146
154 | G1U G57A | 0.175
155 | U2G C48A | 0.213
156 | U2G C48G | 0.116
157 | U2C A35C | 0.159
158 | U2G A43G | 0.21
159 | U2G A43U | 0.102
160 | U2G C37G | 0.0975
161 | C3A | 0.714
162 | C3G | 0.296
163 | U2G G69U | 0.116
164 | U2G G69A | 0.109
165 | G1U U14A | 0.041
166 | G1U U14C | 0.128
167 | C3A G25C | 0.202
